# B1: GpH7-A5/GpH7-B3 variant Y296_10E/GpL16-k0 (heterodimerized antibody, He Ab) (antibody, human IgG1, kappa)
# heavy 1: not shown
# heavy 2: not shown
# light: DIVMTQSPLSLPVTPGEPASISCQASESLVHSNRNTYLHWYLQKPGQSPQLLIYKVSNRFSGVPDRFSGSGSGTDFTLKISRVEAEDVGVYYCSQNTHVPPTFGQGTKVEIERTVAAPSVFIFPPSDEQLKSGTASVVCLLNNFYPREAKVQWKVDNALQSGNSQESVTEQDSKDSTYSLSSTLTLSKADYEKHKVYACEVTHQGLSSPVTKSFNRGEC
# notes: Anti-glypican-3 IgG1; alteration only in the GpH7-B3 (K439E) chain; other H chain is GpH7-A5 (D356K/H435R)
# B2: GpH7-A5/GpH7-B3 variant V266_06M/GpL16-k0 (antibody, human IgG1, kappa)
# heavy 1: not shown
# heavy 2: not shown
# light: B1 light
# notes: Heterodimerized anti-glypican-3 IgG1; alteration in the GpH7-B3 chain only; also called He Ab
# B3: GpH7-B3 variant Y296_16H/GpL16-k0 (homodimerized antibody, Ho Ab) (antibody, human IgG1, kappa)
# heavy: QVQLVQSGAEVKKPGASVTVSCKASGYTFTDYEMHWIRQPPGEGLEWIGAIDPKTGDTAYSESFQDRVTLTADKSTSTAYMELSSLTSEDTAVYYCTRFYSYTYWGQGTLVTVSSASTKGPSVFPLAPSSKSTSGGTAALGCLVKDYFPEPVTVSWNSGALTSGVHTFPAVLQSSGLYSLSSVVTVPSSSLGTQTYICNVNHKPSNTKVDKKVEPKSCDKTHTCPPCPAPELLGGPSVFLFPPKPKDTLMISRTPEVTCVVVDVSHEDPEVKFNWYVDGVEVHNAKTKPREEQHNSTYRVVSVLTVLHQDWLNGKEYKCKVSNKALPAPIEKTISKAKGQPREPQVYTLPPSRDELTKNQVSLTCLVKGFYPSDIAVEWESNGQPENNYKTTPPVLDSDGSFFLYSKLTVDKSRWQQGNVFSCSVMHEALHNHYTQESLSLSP
# light: B1 light
# notes: Anti-glypican-3 IgG1 (G1d with K439E); same alteration in both H chains
# B4: GpH7-A5/GpH7-B3 variant T335_16H/GpL16-k0 (heterodimerized antibody, He Ab) (antibody, human IgG1, kappa)
# heavy 1: not shown
# heavy 2: not shown
# light: B1 light
# notes: as for B1
# B5: GpH7-B3 variant Y300_08L/GpL16-k0 (homodimerized antibody, Ho Ab) (antibody, human IgG1, kappa)
# heavy: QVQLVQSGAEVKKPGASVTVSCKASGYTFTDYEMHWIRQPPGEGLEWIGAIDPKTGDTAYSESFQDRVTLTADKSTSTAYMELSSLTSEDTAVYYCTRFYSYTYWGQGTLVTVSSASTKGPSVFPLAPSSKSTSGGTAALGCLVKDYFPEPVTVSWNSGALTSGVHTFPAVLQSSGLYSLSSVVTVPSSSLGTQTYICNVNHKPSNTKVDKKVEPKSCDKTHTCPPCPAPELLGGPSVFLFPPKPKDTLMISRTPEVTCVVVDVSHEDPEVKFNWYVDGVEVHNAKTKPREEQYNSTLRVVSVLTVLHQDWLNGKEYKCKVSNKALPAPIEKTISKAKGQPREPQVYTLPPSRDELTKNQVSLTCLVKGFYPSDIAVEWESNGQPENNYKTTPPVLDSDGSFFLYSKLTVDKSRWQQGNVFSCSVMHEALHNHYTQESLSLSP
# light: B1 light
# notes: as for B3
# B6: GpH7-B3 variant Y296_20W/GpL16-k0 (homodimerized antibody, Ho Ab) (antibody, human IgG1, kappa)
# heavy: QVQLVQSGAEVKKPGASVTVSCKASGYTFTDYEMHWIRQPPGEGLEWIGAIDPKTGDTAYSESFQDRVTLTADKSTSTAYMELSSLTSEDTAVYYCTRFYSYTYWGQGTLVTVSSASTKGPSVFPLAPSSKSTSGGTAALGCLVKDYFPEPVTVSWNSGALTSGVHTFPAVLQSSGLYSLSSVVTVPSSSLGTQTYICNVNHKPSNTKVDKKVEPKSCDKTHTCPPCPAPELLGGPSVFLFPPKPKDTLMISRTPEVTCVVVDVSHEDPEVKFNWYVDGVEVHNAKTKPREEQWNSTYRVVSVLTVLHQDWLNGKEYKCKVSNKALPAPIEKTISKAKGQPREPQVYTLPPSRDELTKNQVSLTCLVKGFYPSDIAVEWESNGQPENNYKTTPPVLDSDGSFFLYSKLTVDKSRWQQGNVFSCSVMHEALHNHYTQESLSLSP
# light: B1 light
# notes: as for B3
# B7: GpH7-B3 variant Y300_10E/GpL16-k0 (homodimerized antibody, Ho Ab) (antibody, human IgG1, kappa)
# heavy: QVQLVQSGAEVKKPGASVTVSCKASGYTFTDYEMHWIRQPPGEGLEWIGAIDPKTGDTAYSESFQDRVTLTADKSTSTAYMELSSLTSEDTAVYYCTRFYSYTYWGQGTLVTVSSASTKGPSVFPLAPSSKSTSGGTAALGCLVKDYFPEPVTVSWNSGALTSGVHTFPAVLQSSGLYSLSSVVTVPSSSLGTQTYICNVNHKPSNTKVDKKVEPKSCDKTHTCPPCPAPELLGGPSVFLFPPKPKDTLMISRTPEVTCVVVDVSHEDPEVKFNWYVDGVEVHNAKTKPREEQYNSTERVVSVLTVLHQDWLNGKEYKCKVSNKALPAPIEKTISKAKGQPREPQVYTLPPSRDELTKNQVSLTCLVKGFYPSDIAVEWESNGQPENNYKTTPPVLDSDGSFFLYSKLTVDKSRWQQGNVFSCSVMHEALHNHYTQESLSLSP
# light: B1 light
# notes: as for B3
# B8: GpH7-B3 variant T335_20W/GpL16-k0 (homodimerized antibody, Ho Ab) (antibody, human IgG1, kappa)
# heavy: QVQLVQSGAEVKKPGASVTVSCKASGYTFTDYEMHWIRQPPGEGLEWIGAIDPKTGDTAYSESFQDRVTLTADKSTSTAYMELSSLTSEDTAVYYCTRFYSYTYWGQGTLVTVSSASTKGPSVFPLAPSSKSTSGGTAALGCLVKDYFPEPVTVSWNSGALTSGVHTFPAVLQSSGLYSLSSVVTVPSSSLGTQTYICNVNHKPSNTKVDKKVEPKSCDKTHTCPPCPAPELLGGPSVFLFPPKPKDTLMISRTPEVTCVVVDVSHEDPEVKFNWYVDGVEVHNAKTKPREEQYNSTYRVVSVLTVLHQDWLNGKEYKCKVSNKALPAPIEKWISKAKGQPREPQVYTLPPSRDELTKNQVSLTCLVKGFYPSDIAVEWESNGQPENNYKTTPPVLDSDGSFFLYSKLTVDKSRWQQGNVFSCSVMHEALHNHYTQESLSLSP
# light: B1 light
# notes: as for B3
# B9: GpH7-B3 variant Y300_03V/GpL16-k0 (homodimerized antibody, Ho Ab) (antibody, human IgG1, kappa)
# heavy: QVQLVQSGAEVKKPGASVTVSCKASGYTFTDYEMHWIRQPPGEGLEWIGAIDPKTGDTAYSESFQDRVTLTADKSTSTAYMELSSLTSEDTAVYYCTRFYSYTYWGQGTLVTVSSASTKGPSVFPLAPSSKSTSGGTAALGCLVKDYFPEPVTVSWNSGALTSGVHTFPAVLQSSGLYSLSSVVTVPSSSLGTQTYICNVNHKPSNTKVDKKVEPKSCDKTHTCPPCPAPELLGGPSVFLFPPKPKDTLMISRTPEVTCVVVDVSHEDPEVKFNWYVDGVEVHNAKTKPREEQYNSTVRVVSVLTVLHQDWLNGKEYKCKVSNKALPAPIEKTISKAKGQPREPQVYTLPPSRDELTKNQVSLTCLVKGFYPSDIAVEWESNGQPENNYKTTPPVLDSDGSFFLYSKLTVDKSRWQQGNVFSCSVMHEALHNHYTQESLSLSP
# light: B1 light
# notes: as for B3
# B10: GpH7-B3 variant Y296_14T/GpL16-k0 (homodimerized antibody, Ho Ab) (antibody, human IgG1, kappa)
# heavy: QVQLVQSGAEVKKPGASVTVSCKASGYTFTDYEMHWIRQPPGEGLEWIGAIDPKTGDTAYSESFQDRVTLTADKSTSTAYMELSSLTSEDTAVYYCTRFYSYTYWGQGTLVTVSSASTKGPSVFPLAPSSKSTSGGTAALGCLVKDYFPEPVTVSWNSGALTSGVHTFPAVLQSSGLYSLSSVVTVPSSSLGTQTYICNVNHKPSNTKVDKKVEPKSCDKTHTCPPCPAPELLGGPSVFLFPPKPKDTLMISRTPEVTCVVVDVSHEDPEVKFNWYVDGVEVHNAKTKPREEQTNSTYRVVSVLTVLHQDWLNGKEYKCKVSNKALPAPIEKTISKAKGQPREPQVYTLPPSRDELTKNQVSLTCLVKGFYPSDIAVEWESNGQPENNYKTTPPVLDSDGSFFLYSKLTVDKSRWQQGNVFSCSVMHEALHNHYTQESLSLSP
# light: B1 light
# notes: as for B3
# B11: GpH7-A5/GpH7-B3 variant Y296_06M/GpL16-k0 (heterodimerized antibody, He Ab) (antibody, human IgG1, kappa)
# heavy 1: not shown
# heavy 2: not shown
# light: B1 light
# notes: as for B1
# B12: GpH7-B3 variant Y300_09D/GpL16-k0 (homodimerized antibody, Ho Ab) (antibody, human IgG1, kappa)
# heavy: not shown
# light: B1 light
# notes: as for B3
# B13: GpH7-B3 variant T335_16H/GpL16-k0 (homodimerized antibody, Ho Ab) (antibody, human IgG1, kappa)
# heavy: not shown
# light: B1 light
# notes: as for B3
# B14: GpH7-B3 variant Y296_18N/GpL16-k0 (homodimerized antibody, Ho Ab) (antibody, human IgG1, kappa)
# heavy: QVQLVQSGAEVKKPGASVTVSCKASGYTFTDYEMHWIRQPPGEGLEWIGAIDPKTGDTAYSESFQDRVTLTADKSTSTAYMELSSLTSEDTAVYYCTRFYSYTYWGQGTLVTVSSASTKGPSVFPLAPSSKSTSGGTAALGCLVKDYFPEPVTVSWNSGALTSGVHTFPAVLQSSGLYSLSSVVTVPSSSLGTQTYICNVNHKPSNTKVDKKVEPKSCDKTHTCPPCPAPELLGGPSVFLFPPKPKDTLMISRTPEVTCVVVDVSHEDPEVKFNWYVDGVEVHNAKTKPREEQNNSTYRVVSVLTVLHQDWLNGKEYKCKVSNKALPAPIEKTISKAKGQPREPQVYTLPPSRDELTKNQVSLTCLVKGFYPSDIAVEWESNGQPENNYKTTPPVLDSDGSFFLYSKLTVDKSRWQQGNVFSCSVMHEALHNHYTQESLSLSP
# light: B1 light
# notes: as for B3
# B15: GpH7-B3 variant T335_18N/GpL16-k0 (homodimerized antibody, Ho Ab) (antibody, human IgG1, kappa)
# heavy: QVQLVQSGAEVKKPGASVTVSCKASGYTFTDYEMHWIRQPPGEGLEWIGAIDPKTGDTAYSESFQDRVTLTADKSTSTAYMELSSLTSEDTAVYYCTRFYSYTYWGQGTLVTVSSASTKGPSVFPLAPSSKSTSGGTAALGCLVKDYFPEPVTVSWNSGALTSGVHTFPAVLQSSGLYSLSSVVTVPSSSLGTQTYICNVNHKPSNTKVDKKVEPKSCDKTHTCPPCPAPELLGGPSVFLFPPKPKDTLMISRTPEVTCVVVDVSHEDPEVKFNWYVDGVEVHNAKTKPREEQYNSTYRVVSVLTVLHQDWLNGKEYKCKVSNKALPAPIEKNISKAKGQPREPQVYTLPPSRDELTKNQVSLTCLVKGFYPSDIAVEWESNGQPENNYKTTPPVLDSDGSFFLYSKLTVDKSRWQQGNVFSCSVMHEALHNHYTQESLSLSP
# light: B1 light
# notes: as for B3
# B16: GpH7-B3 variant Y296_10E/GpL16-k0 (homodimerized antibody, Ho Ab) (antibody, human IgG1, kappa)
# heavy: not shown
# light: B1 light
# notes: as for B3
# B17: GpH7-A5/GpH7-B3 variant T335_20W/GpL16-k0 (heterodimerized antibody, He Ab) (antibody, human IgG1, kappa)
# heavy 1: not shown
# heavy 2: not shown
# light: B1 light
# notes: as for B1
# B18: GpH7-A5/GpH7-B3 variant S239_09D/GpL16-k0 (antibody, human IgG1, kappa)
# heavy 1: not shown
# heavy 2: not shown
# light: B1 light
# notes: as for B2
# B19: GpH7-A5/GpH7-B3 variant S239_08L/GpL16-k0 (antibody, human IgG1, kappa)
# heavy 1: not shown
# heavy 2: not shown
# light: B1 light
# notes: as for B2
# B20: GpH7-A5/GpH7-B3 variant S239_10E/GpL16-k0 (antibody, human IgG1, kappa)
# heavy 1: not shown
# heavy 2: not shown
# light: B1 light
# notes: as for B2
# B21: GpH7-B3 variant Y300_02A/GpL16-k0 (homodimerized antibody, Ho Ab) (antibody, human IgG1, kappa)
# heavy: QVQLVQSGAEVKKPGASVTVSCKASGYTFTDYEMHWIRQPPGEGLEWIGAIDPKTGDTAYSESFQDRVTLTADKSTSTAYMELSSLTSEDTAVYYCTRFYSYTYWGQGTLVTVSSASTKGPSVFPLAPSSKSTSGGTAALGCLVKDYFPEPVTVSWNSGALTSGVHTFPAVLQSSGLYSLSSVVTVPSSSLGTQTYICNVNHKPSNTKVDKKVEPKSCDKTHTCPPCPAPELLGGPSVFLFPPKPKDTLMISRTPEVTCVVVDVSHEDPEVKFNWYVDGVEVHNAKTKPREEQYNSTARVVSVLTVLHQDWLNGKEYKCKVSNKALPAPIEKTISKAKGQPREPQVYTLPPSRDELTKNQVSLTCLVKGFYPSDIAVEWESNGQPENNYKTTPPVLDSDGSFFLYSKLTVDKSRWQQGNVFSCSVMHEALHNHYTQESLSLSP
# light: B1 light
# notes: as for B3
# Key:
# FcγRIa [1] = molecular target: T1, FcγRIa (human, UniProt P12314 16-292); test: SPR (Biacore), antibody captured on antigen-peptide chip, FcγRIa as analyte; binding activity relative to control GpH7-A5/GpH7-B3/GpL16-k0 (HeCon Ab) x100
# T1 construct: extracellular domain; Soluble extracellular domain with C-terminal His tag, expressed in FreeStyle293 cells; analyte in Biacore; also called FcgRI; CD64; not shown: His tag attached to the C terminus
# Procedure: (§1) Analysis of interaction between objective antibody and the FcγR was carried out using Biacore T100 (GE Healthcare). HBS-EP+ (GE Healthcare) was used as the running buffer, and the measurement temperature was set to 25° C. Chips produced by immobilizing the antigen peptide by the amine coupling method to a Series S Sencor Chip CM5 (GE Healthcare), or alternatively, chips produced by allowing preliminarily biotinylated antigen peptides to interact with and immobilize onto a Series S Sensor Chip SA (certified) (GE Healthcare) were used. Antibodies of interest were captured onto an antigen peptide-immobilized chip, and allowed to interact to each FcγR diluted with running buffer. To regenerate and repeatedly use the chip, the antibodies captured on the chip were washed off by reacting 10 mM glycine-HCl, pH 1.5.
# T1 sequence (P12314 16-292): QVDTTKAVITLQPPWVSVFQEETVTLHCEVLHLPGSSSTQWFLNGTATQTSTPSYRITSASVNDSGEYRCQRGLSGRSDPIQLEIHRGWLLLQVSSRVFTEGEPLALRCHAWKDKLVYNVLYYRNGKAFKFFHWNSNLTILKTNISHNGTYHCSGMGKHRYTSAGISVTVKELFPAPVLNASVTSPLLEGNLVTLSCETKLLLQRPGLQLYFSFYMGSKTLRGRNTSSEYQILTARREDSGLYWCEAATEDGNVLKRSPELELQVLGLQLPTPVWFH
# FcγRIIb = molecular target: T2, FcγRIIb (human, UniProt P31994 43-217); test: SPR (Biacore), antibody captured, FcγR as analyte; relative to GpH7-A5/GpH7-B3/GpL16-k0 = 100
# T2 construct: extracellular domain; Soluble extracellular domain with C-terminal His tag, used as analyte in Biacore; also called FcgRIIb; 2b; not shown: His tag attached to the C terminus
# T2 sequence (looked up): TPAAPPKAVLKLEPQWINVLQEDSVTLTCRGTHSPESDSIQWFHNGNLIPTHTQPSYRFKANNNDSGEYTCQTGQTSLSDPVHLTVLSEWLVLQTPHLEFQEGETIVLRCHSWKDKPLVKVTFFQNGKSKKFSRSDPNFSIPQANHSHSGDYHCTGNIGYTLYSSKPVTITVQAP
# FcγRIa [2] = molecular target: T3, FcγRIa (human, UniProt P12314 16-292); test: as above
# T3 construct: extracellular domain; Soluble extracellular domain with C-terminal His tag, used as analyte in Biacore; also called FcgRI; 1a; not shown: His tag attached to the C terminus
# T3 sequence (P12314 16-292): as the sequence (P12314 16-292) above
# FcγRIa [3] = molecular target: T3, FcγRIa; test: SPR (Biacore); He/Con_1a divided by He/Con_2b (binding to FcγRIa against binding to FcγRIIb)
# Procedure: The heterodimerized antibodies He Abs in which one of the H chains was introduced with an alteration were assayed for their binding activities to each activating FcγR and inhibitory FcγR according to the method described in Example 4. […] The activating FcγRs in FIGS. 26, 27, 28, and 29 are FcγRIa, FcγRIIa (R), FcγRIIa (H), and FcγRIIIa, respectively.
# as §1
# FcγRIa [4] = molecular target: T1, FcγRIa; test: SPR (Biacore), antibody captured on antigen-peptide chip, FcγRIa as analyte; binding activity relative to control GpH7-B3/GpL16-k0 (HoCon Ab) x100
# Procedure: as §1
binder,measurement,setting,value
B1,He/Con_1a,FcγRIa [1],106 % of control (=100)
B2,He/Con_2b,FcγRIIb,251 % of control (=100)
same,He/Con_1a,FcγRIa [2],99.7 % of control (=100)
same,He_1a/2b (Ia/IIb),FcγRIa [3],0.4 ratio
B3,Ho/Con_1a,FcγRIa [4],105 % of control (=100)
B4,He/Con_1a,FcγRIa [1],106 % of control (=100)
B5,Ho/Con_1a,FcγRIa [4],109 % of control (=100)
B6,Ho/Con_1a,FcγRIa [4],106 % of control (=100)
B7,Ho/Con_1a,FcγRIa [4],111 % of control (=100)
B8,Ho/Con_1a,FcγRIa [4],104 % of control (=100)
B9,Ho/Con_1a,FcγRIa [4],112 % of control (=100)
B10,Ho/Con_1a,FcγRIa [4],105 % of control (=100)
B11,He/Con_1a,FcγRIa [1],104 % of control (=100)
B12,Ho/Con_1a,FcγRIa [4],111 % of control (=100)
B13,Ho/Con_1a,FcγRIa [4],104 % of control (=100)
B14,Ho/Con_1a,FcγRIa [4],105 % of control (=100)
B15,Ho/Con_1a,FcγRIa [4],102 % of control (=100)
B16,Ho/Con_1a,FcγRIa [4],106 % of control (=100)
B17,He/Con_1a,FcγRIa [1],106 % of control (=100)
B18,He/Con_2b,FcγRIIb,206 % of control (=100)
same,He/Con_1a,FcγRIa [2],101 % of control (=100)
same,He_1a/2b (Ia/IIb),FcγRIa [3],0.49 ratio
B19,He/Con_2b,FcγRIIb,140 % of control (=100)
same,He/Con_1a,FcγRIa [2],99.8 % of control (=100)
same,He_1a/2b (Ia/IIb),FcγRIa [3],0.71 ratio
B20,He/Con_2b,FcγRIIb,181 % of control (=100)
same,He/Con_1a,FcγRIa [2],105 % of control (=100)
same,He_1a/2b (Ia/IIb),FcγRIa [3],0.58 ratio
B21,Ho/Con_1a,FcγRIa [4],110 % of control (=100)

# Source: patent publication US20150344570A1 (published 2015)
